Experimental data as given in the RNAGym collection of RNA variant scans (doi:10.7554/elife.80360).

B1: Hairpin Ribozyme (parent)
chain: GUCCUCUUUCACGUGCGCGUGAAAGAGAGAAGUGAACCAGAGAAACACACGUUGUGGUAUAUUACCUGGUA

Variants of: B1
Assay: self-cleavage, relative activity (ratio to wild type); higher = more cleavage; co-transcriptional

In order of falling self-cleavage:
1. GUCCUCUUUCACGUGCGCGUGAAAGAGAGAAGUGAACCAGCGAAACACACGUUGUGGCAUAUUACCUGGUA [A41C U58C]  1.2
2. GUCCUCUUUCACAUUCGCGUGAAAGAGAGAAGUGAACCAGAGAAACACACGUUGUGGUAUAUUACCUGGUA [G13A G15U]  1.1
3. GUCCUCUUUCACGUGCGCGUGGAAGAGAGAAGUGAACCAGAGAAACACACGAUGUGGUAUAUUACCUGGUA [A22G U52A]  0.853
4. GUCCUCUUUCACGUGCGCUUGAACGAGAGAAGUGAACCAGAGAAACACACGUUGUGGUAUAUUACCUGGUA [G19U A24C]  0.79
5. GUCCUCUUUCACGUGCGCGUAAAAGGGAGAAGUGAACCAGAGAAACACACGUUGUGGUAUAUUACCUGGUA [G21A A26G]  0.658
6. GUCCUCUUUCACGUGCGCGUGAAAGAGAGAAGUGAACCAGAGAAACACGCGUUGUGGUAUAUUACCUGGUA [A49G]  0.57
7. GUCCUCUUUCCCGUGCGCGUGAAGGAGAGAAGUGAACCAGAGAAACACACGUUGUGGUAUAUUACCUGGUA [A11C A24G]  0.539
8. GUCCUCUUUCAAGUGCGCGUGAAAGAGAGAAGUGAACCAGAGAAACACACGUUGUGGUAUAUUACUUGGUA [C12A C66U]  0.418
9. GUCCUCUUUCACGUGCGCGUGAAAGAGAGAAGUGAACCAGAGAAACACACGUUGUGGAAUAUUACCUGGUU [U58A A71U]  0.391
10. GUCCUCUUUCACGUGCGCGUGAAAGAGAGAAGUGAACCAAAGAAACACACGCUGUGGUAUAUUACCUGGUA [G40A U52C]  0.347
11. GUCCAAUUUCACGUGCGCGUGAAAGAGAGAAGUGAACCAGAGAAACACACGUUGUGGUAUAUUACCUGGUA [U5A C6A]  0.337
12. GUCCUCUUUCACGUGCGCUUGAAAGAGAGAAGUGAACCAGAGAAACACACGUUGAGGUAUAUUACCUGGUA [G19U U55A]  0.287
13. GUCCUCUGUCACGUGCGCGUGAAAGAGAGAAGUGAACCAGAGAAACACACGUUGUGGUAUAUUACCUGAUA [U8G G69A]  0.282
14. GUCCUCUUUCACGCGCGCGUGAAAGAGAGAAGUGAACCAGAGAAACACACGUUGUGGUAUAUUCCCUGGUA [U14C A64C]  0.257
15. GUCCUCUUUCACGUGCGCGUGAAAGAGAGCAGUGAACCAGAGAAACACACGUUGUGGUAUCUUACCUGGUA [A30C A61C]  0.251
16. GUCCUCUUACACGUGCGCGUGAAAGAGAGAAGUGAACCAGAGAAACACAUGUUGUGGUAUAUUACCUGGUA [U9A C50U]  0.22
17. GUCCUCUUUCACGUGCGCGUCAAAGAGAGAAGUGAACCAGAGAAACACACGUUGUCGUAUAUUACCUGGUA [G21C G56C]  0.209
18. GUCCUCUUUCACGUGCGCGUGAAAGAGAGAGGUGAACCAGAGAGACACACGUUGUGGUAUAUUACCUGGUA [A31G A44G]  0.208
19. UUCUUCUUUCACGUGCGCGUGAAAGAGAGAAGUGAACCAGAGAAACACACGUUGUGGUAUAUUACCUGGUA [G1U C4U]  0.206
20. GUCCUCUUUCACGUGCGCGUGAAAGAGAGACGUGAACCAGAGAAACACACGUUGUGGUAUCUUACCUGGUA [A31C A61C]  0.194
21. GUCCUCUUUCACGUGCGCGUGAAAGAGAGAAGUGAACCAGAGAGACACACGUUGUGGUAUAUUAGCUGGUA [A44G C65G]  0.192
22. GUCCUCUUUCACGUGCGCGUGAAAGAGAGAAGUGAACCAGAGAAACUCACGUUGUGGUAUAUUACCUGGUG [A47U A71G]  0.191
23. GACCUCUUUCACGUGCGCGUGAAAGAGAGAAGUGAACCAGAGAAACACACGUUGUUGUAUAUUACCUGGUA [U2A G56U]  0.179
24. GUCCUCUUUCACGUACGCGUGAAAGAGAGAAGUGAACCAGAGUAACACACGUUGUGGUAUAUUACCUGGUA [G15A A43U]  0.178
25. GUCCUCUUUCACGUGCGCGUGAAAGAGAGCAGUGAACCAGAGAAACACACGUUCUGGUAUAUUACCUGGUA [A30C G54C]  0.173
26. GUCCUCUUUCACGUGCGCGUGAAAGAGAGAAGUGAACCAGAGAAACACACGUUGUGGUAGAUCACCUGGUA [U60G U63C]  0.171
27. GUCCUCUUUCACGUGCGCGUGAUAGAGAGAAGUGAACCAGAGAAACACACGUUGUGGUAUAUUAGCUGGUA [A23U C65G]  0.159
28. GUCCUCUUUCACGUGCGCGUGAAAGAGAGAAGUGAACCAGGGAAAAACACGUUGUGGUAUAUUACCUGGUA [A41G C46A]  0.151
29. GUCCUCUUUCACGUGCGCGUGAAAGAGAGAAGUGAACCAGAGUAACACACGUUGUGGUAUGUUACCUGGUA [A43U A61G]  0.144
30. GUCCUCUUUCACGUGCGCGUGAAAGAGAGAAGUGAACCAGAGAAACACACGUUGUCGUAUAUUACCUGCUA [G56C G69C]  0.12
31. GUCCUCUUUCACGUGAGCGUGAAAGAGAGAAGUGAACCAGAGAAGCACACGUUGUGGUAUAUUACCUGGUA [C16A A45G]  0.115
32. GCCCUCUUUCACGUGCGCGUGAAAGAGAGAAGUGAACCAGAGAAACACACGUUGUGGUAUAUCACCUGGUA [U2C U63C]  0.109
33. GUCCUCUUUCACGUGCGCGUGAAAGAGAGAAUUGAACCAGAGAAACACACGUUGUGGUAUAUUACCUGGGA [G32U U70G]  0.108
34. GUCCUCUUUCACGUGCGCGUGAAAGAAAGAAGUGAACCAGAGAAACACACGUUGUGGUCUAUUACCUGGUA [G27A A59C]  0.103
35. GCCCUCUUUCACGUGCGCGUGAAAGAGAGAAGGGAACCAGAGAAACACACGUUGUGGUAUAUUACCUGGUA [U2C U33G]  0.0942
36. GUCCUCUUUCACGUGCGCGUGAAAGAGAGAAGUGAACCAGAGAAACACACGUUGUGGAAUAAUACCUGGUA [U58A U62A]  0.0926
37. GUCCUCUUUCACGUGCGCGUGAAAGAGAGAAGUGAACCAGAGAAACACACGUUAUAGUAUAUUACCUGGUA [G54A G56A]  0.0848
38. GCCCUCUUGCACGUGCGCGUGAAAGAGAGAAGUGAACCAGAGAAACACACGUUGUGGUAUAUUACCUGGUA [U2C U9G]  0.0171
